Laboratory results: patent publication US20230125301A1 (published 2023)
Read-outs that look alike come from different tables or passages of the source.

Experiments:
Experiment in all cases: FACS binding, CHO-K1 cells
human PD-L1 [1] = target: T1, human PD-L1 (human, UniProt Q9NZQ7 19-290)
human PD-L1 [2] = target: T1, human PD-L1; remark: listed apart in the source
human PD-L1 [3] = target: T1, human PD-L1; remark: listed apart in the source

T1 sequence (Q9NZQ7 19-290): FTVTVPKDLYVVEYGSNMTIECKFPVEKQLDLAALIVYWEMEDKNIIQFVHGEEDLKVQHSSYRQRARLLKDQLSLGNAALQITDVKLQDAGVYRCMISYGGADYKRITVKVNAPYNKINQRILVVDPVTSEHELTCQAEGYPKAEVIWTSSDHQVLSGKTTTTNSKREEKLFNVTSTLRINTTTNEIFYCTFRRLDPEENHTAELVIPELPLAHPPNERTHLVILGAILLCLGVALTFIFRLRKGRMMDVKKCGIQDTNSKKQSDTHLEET

Binder	EC50 (human PD-L1 [1])	EC50 (human PD-L1 [2])	EC50 (human PD-L1 [3])
CLDN18L-E2a-pdl1a (bispecific antibody) heavy: not shown light: DIVMTQSPLSLPVTPGEPASISCKSSQTLLNSGNQKNYLTWYLQKPGQSPQLLIYWASTGESGVPDRFSGSGSGTDFTLKISRVEAEDVGVYYCQNAYFYPFTFGGGTKVEIKRTVAAPSVFIFPPSDEQLKSGTASVVCLLNNFYPREAKVQWKVDNALQSGNSQESVTEQDSKDSTYSLSSTLTLSKADYEKHKVYACEVTHQGLSSPVTKSFNRGECERKSGVEGPPGPEVQLVESGGGLVQPGGSLRLSCAASGRTFVTYGMGWFRQAPGKGREFVSAISWSGSMTSYGDSVKGRFTISRDNAKNTLYLQMNSLRPEDTAVYYCAAALGAVVYTTREPYTYWGQGTLVTVSS	–	0.439 nM	–
CLDN18H-E-pdl1b (bispecific antibody) heavy: not shown light: DIVMTQSPLSLPVTPGEPASISCKSSQTLLNSGNQKNYLTWYLQKPGQSPQLLIYWASTGESGVPDRFSGSGSGTDFTLKISRVEAEDVGVYYCQNAYFYPFTFGGGTKVEIKRTVAAPSVFIFPPSDEQLKSGTASVVCLLNNFYPREAKVQWKVDNALQSGNSQESVTEQDSKDSTYSLSSTLTLSKADYEKHKVYACEVTHQGLSSPVTKSFNRGEC	–	–	0.296 nM
CLDN18H-E-pdl1c (bispecific antibody) heavy: not shown light: DIVMTQSPLSLPVTPGEPASISCKSSQTLLNSGNQKNYLTWYLQKPGQSPQLLIYWASTGESGVPDRFSGSGSGTDFTLKISRVEAEDVGVYYCQNAYFYPFTFGGGTKVEIKRTVAAPSVFIFPPSDEQLKSGTASVVCLLNNFYPREAKVQWKVDNALQSGNSQESVTEQDSKDSTYSLSSTLTLSKADYEKHKVYACEVTHQGLSSPVTKSFNRGEC	–	–	0.317 nM
pdl1a-G15-CLDN18H (bispecific antibody) heavy: not shown light: DIVMTQSPLSLPVTPGEPASISCKSSQTLLNSGNQKNYLTWYLQKPGQSPQLLIYWASTGESGVPDRFSGSGSGTDFTLKISRVEAEDVGVYYCQNAYFYPFTFGGGTKVEIKRTVAAPSVFIFPPSDEQLKSGTASVVCLLNNFYPREAKVQWKVDNALQSGNSQESVTEQDSKDSTYSLSSTLTLSKADYEKHKVYACEVTHQGLSSPVTKSFNRGEC	0.134 nM	–	–
CLDN18H-E-pdl1a (bispecific antibody) heavy: not shown light: DIVMTQSPLSLPVTPGEPASISCKSSQTLLNSGNQKNYLTWYLQKPGQSPQLLIYWASTGESGVPDRFSGSGSGTDFTLKISRVEAEDVGVYYCQNAYFYPFTFGGGTKVEIKRTVAAPSVFIFPPSDEQLKSGTASVVCLLNNFYPREAKVQWKVDNALQSGNSQESVTEQDSKDSTYSLSSTLTLSKADYEKHKVYACEVTHQGLSSPVTKSFNRGEC	–	–	1.46 nM
CLDN18H-G12-pdl1a (bispecific antibody) heavy: not shown light: DIVMTQSPLSLPVTPGEPASISCKSSQTLLNSGNQKNYLTWYLQKPGQSPQLLIYWASTGESGVPDRFSGSGSGTDFTLKISRVEAEDVGVYYCQNAYFYPFTFGGGTKVEIKRTVAAPSVFIFPPSDEQLKSGTASVVCLLNNFYPREAKVQWKVDNALQSGNSQESVTEQDSKDSTYSLSSTLTLSKADYEKHKVYACEVTHQGLSSPVTKSFNRGEC	0.281 nM	–	–
CLDN18H-G9-pdl1a (bispecific antibody) heavy: not shown light: DIVMTQSPLSLPVTPGEPASISCKSSQTLLNSGNQKNYLTWYLQKPGQSPQLLIYWASTGESGVPDRFSGSGSGTDFTLKISRVEAEDVGVYYCQNAYFYPFTFGGGTKVEIKRTVAAPSVFIFPPSDEQLKSGTASVVCLLNNFYPREAKVQWKVDNALQSGNSQESVTEQDSKDSTYSLSSTLTLSKADYEKHKVYACEVTHQGLSSPVTKSFNRGEC	0.111 nM	–	–
pdl1a-G12-CLDN18H (bispecific antibody) heavy: not shown light: DIVMTQSPLSLPVTPGEPASISCKSSQTLLNSGNQKNYLTWYLQKPGQSPQLLIYWASTGESGVPDRFSGSGSGTDFTLKISRVEAEDVGVYYCQNAYFYPFTFGGGTKVEIKRTVAAPSVFIFPPSDEQLKSGTASVVCLLNNFYPREAKVQWKVDNALQSGNSQESVTEQDSKDSTYSLSSTLTLSKADYEKHKVYACEVTHQGLSSPVTKSFNRGEC	0.0989 nM	–	–
CLDN18H-G15-pdl1a (bispecific antibody) heavy: not shown light: DIVMTQSPLSLPVTPGEPASISCKSSQTLLNSGNQKNYLTWYLQKPGQSPQLLIYWASTGESGVPDRFSGSGSGTDFTLKISRVEAEDVGVYYCQNAYFYPFTFGGGTKVEIKRTVAAPSVFIFPPSDEQLKSGTASVVCLLNNFYPREAKVQWKVDNALQSGNSQESVTEQDSKDSTYSLSSTLTLSKADYEKHKVYACEVTHQGLSSPVTKSFNRGEC	0.219 nM	–	0.525 nM
pdl1a-E-CLDN18H (bispecific antibody) heavy: not shown light: DIVMTQSPLSLPVTPGEPASISCKSSQTLLNSGNQKNYLTWYLQKPGQSPQLLIYWASTGESGVPDRFSGSGSGTDFTLKISRVEAEDVGVYYCQNAYFYPFTFGGGTKVEIKRTVAAPSVFIFPPSDEQLKSGTASVVCLLNNFYPREAKVQWKVDNALQSGNSQESVTEQDSKDSTYSLSSTLTLSKADYEKHKVYACEVTHQGLSSPVTKSFNRGEC	0.143 nM	–	0.0745 nM
CLDN18L-E-pdl1b (bispecific antibody) heavy: not shown light: DIVMTQSPLSLPVTPGEPASISCKSSQTLLNSGNQKNYLTWYLQKPGQSPQLLIYWASTGESGVPDRFSGSGSGTDFTLKISRVEAEDVGVYYCQNAYFYPFTFGGGTKVEIKRTVAAPSVFIFPPSDEQLKSGTASVVCLLNNFYPREAKVQWKVDNALQSGNSQESVTEQDSKDSTYSLSSTLTLSKADYEKHKVYACEVTHQGLSSPVTKSFNRGECEPKSSDKTHTSPPSPEVQLVESGGGLVQPGGSLRLSCAASGRTFVTYGMGWFRQAPGKGREFVSAISWSGSSTSYGDSVKGRFTISRDNAKNTLYLQMNSLRPEDTAVYYCAAALGAVVYTTREPYTYWGQGTLVTVSS	–	–	0.516 nM

Continued, values first:

EC50 (human PD-L1 [1])	EC50 (human PD-L1 [2])	EC50 (human PD-L1 [3])	Binder
0.0898 nM	–	–	pdl1a-G12-CLDN18L (bispecific antibody) heavy: not shown light: EVQLVESGGGLVQPGGSLRLSCAASGRTFVTYGMGWFRQAPGKGREFVSAISWSGSMTSYGDSVKGRFTISRDNAKNTLYLQMNSLRPEDTAVYYCAAALGAVVYTTREPYTYWGQGTLVTVSSGGGGSGGGGSGSDIVMTQSPLSLPVTPGEPASISCKSSQTLLNSGNQKNYLTWYLQKPGQSPQLLIYWASTGESGVPDRFSGSGSGTDFTLKISRVEAEDVGVYYCQNAYFYPFTFGGGTKVEIKRTVAAPSVFIFPPSDEQLKSGTASVVCLLNNFYPREAKVQWKVDNALQSGNSQESVTEQDSKDSTYSLSSTLTLSKADYEKHKVYACEVTHQGLSSPVTKSFNRGEC
–	0.333 nM	–	CLDN18L-E2-pdl1a (bispecific antibody) heavy: not shown light: DIVMTQSPLSLPVTPGEPASISCKSSQTLLNSGNQKNYLTWYLQKPGQSPQLLIYWASTGESGVPDRFSGSGSGTDFTLKISRVEAEDVGVYYCQNAYFYPFTFGGGTKVEIKRTVAAPSVFIFPPSDEQLKSGTASVVCLLNNFYPREAKVQWKVDNALQSGNSQESVTEQDSKDSTYSLSSTLTLSKADYEKHKVYACEVTHQGLSSPVTKSFNRGECERKSSVESPPSPEVQLVESGGGLVQPGGSLRLSCAASGRTFVTYGMGWFRQAPGKGREFVSAISWSGSMTSYGDSVKGRFTISRDNAKNTLYLQMNSLRPEDTAVYYCAAALGAVVYTTREPYTYWGQGTLVTVSS
0.808 nM	–	–	CLDN18L-G12-pdl1a (bispecific antibody) heavy: not shown light: DIVMTQSPLSLPVTPGEPASISCKSSQTLLNSGNQKNYLTWYLQKPGQSPQLLIYWASTGESGVPDRFSGSGSGTDFTLKISRVEAEDVGVYYCQNAYFYPFTFGGGTKVEIKRTVAAPSVFIFPPSDEQLKSGTASVVCLLNNFYPREAKVQWKVDNALQSGNSQESVTEQDSKDSTYSLSSTLTLSKADYEKHKVYACEVTHQGLSSPVTKSFNRGECGGGGSGGGGSGSEVQLVESGGGLVQPGGSLRLSCAASGRTFVTYGMGWFRQAPGKGREFVSAISWSGSMTSYGDSVKGRFTISRDNAKNTLYLQMNSLRPEDTAVYYCAAALGAVVYTTREPYTYWGQGTLVTVSS
0.107 nM	–	0.131 nM	pdl1a-E-CLDN18L (bispecific antibody) heavy: not shown light: EVQLVESGGGLVQPGGSLRLSCAASGRTFVTYGMGWFRQAPGKGREFVSAISWSGSMTSYGDSVKGRFTISRDNAKNTLYLQMNSLRPEDTAVYYCAAALGAVVYTTREPYTYWGQGTLVTVSSEPKSSDKTHTSPPSPDIVMTQSPLSLPVTPGEPASISCKSSQTLLNSGNQKNYLTWYLQKPGQSPQLLIYWASTGESGVPDRFSGSGSGTDFTLKISRVEAEDVGVYYCQNAYFYPFTFGGGTKVEIKRTVAAPSVFIFPPSDEQLKSGTASVVCLLNNFYPREAKVQWKVDNALQSGNSQESVTEQDSKDSTYSLSSTLTLSKADYEKHKVYACEVTHQGLSSPVTKSFNRGEC
0.147 nM	–	–	pdl1a-G15-CLDN18L (bispecific antibody) heavy: not shown light: EVQLVESGGGLVQPGGSLRLSCAASGRTFVTYGMGWFRQAPGKGREFVSAISWSGSMTSYGDSVKGRFTISRDNAKNTLYLQMNSLRPEDTAVYYCAAALGAVVYTTREPYTYWGQGTLVTVSSGGGGSGGGGSGGGGSDIVMTQSPLSLPVTPGEPASISCKSSQTLLNSGNQKNYLTWYLQKPGQSPQLLIYWASTGESGVPDRFSGSGSGTDFTLKISRVEAEDVGVYYCQNAYFYPFTFGGGTKVEIKRTVAAPSVFIFPPSDEQLKSGTASVVCLLNNFYPREAKVQWKVDNALQSGNSQESVTEQDSKDSTYSLSSTLTLSKADYEKHKVYACEVTHQGLSSPVTKSFNRGEC
0.404 nM	–	0.456 nM	CLDN18L-G15-pdl1a (bispecific antibody) heavy: not shown light: DIVMTQSPLSLPVTPGEPASISCKSSQTLLNSGNQKNYLTWYLQKPGQSPQLLIYWASTGESGVPDRFSGSGSGTDFTLKISRVEAEDVGVYYCQNAYFYPFTFGGGTKVEIKRTVAAPSVFIFPPSDEQLKSGTASVVCLLNNFYPREAKVQWKVDNALQSGNSQESVTEQDSKDSTYSLSSTLTLSKADYEKHKVYACEVTHQGLSSPVTKSFNRGECGGGGSGGGGSGGGGSEVQLVESGGGLVQPGGSLRLSCAASGRTFVTYGMGWFRQAPGKGREFVSAISWSGSMTSYGDSVKGRFTISRDNAKNTLYLQMNSLRPEDTAVYYCAAALGAVVYTTREPYTYWGQGTLVTVSS
–	0.394 nM	–	CLDN18L-Ea-pdl1a (bispecific antibody) heavy: not shown light: DIVMTQSPLSLPVTPGEPASISCKSSQTLLNSGNQKNYLTWYLQKPGQSPQLLIYWASTGESGVPDRFSGSGSGTDFTLKISRVEAEDVGVYYCQNAYFYPFTFGGGTKVEIKRTVAAPSVFIFPPSDEQLKSGTASVVCLLNNFYPREAKVQWKVDNALQSGNSQESVTEQDSKDSTYSLSSTLTLSKADYEKHKVYACEVTHQGLSSPVTKSFNRGECEPKSSDKGHGGPPGPEVQLVESGGGLVQPGGSLRLSCAASGRTFVTYGMGWFRQAPGKGREFVSAISWSGSMTSYGDSVKGRFTISRDNAKNTLYLQMNSLRPEDTAVYYCAAALGAVVYTTREPYTYWGQGTLVTVSS
